# Measurements published in the nanobody polyreactivity screen of Harvey et al. (2022).
# Assay: yeast display, Sf9 membrane polyspecificity reagent, FACS + sequencing; frameworks hold sequencing errors
# In short: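 Sorting gates, low and high (top ~1%), were placed on anti-HA fluorescence to track expression and on streptavidin fluorescence to track reagent binding. A clone's polyreactivity label is taken from the gate it came out of. The reagent was 10% biotinylated, detergent-solubilized Sf9 membrane, applied for 1 hour at 4 °C to galactose-induced yeast display cells.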
row,Sequence,polyreactivity (PSR sort gate)
1,QVQLVESGGGLVQAGGSLRLSCAASGSTFNVNAMGWYRQAPGKETEFVAAITYRGGRTYYADSVKGRFTISRDNEKNTVYLQMNSLKPEDTAVYYCAADGYRKRGFDYWGQGTQVTVSS,high polyreactivity
2,QVQLVESGGGLVQAGGSLRLSCAASGSTFNYNAMGWYRQAPGKERELVAAITGTGGDTYYADSVKGRITISRDNAKNTVYLQMNILKPEDTAVYYCDAEEDYWGQGTQVTLSS,low polyreactivity
3,QVQLVESGGGLVQAGGSLRLSCAASGSTFNYNAMGWYRQAPGKERELVATITTSGGSTYYADSVKGRFTISRDNAKNTVYLQMNSLKPEDTAVYYCAARYPWYRTIDRYDYWGQGTQVTVSS,low polyreactivity
4,QVQLVESGGGLVQAGGSLRLSCAASGSTFNYYAMGWYRPAPGKERELVAAISWSGGSTYYADSVKGRFTISRDNAKNTVYLQMNSLKPEDTAVYYCAAYPARPWARGDRRRIRFWGQGTQVTVSS,high polyreactivity
5,QVQLVESGGGLVQAGGSLRLSCAASGSTFNYYAMGWYRQAPGKERELVAAIDWSGGSTYYADSVKGRFTISRDNAKNTVYLQMNSLKPEDTAVYYCAARTYDYSYRSYDYWGQGTQVTVSS,low polyreactivity
6,QVQLVESGGGLVQAGGSLRLSCAASGSTFNYYTMGWYRQAPGKERELVAAISGRGSITYYADSVKGRFTISRDNAKNTVYLQMNSLKPEDTAVYYCNARYGRWQGSSGEHDYWGQGTQVTVSS,high polyreactivity
7,QVQLVESGGGLVQAGGSLRLSCAASGSTFPAYAMGWYRQAPGKERELVAVINLSGSTYYADSVKGRFTISRDNAKNTVYLQMNSLKPEDTAVYYCNARPYDYYRYGYWGQGTQVTVSS,low polyreactivity
8,QVQLVESGGGLVQAGGSLRLSCAASGSTFPDYAMGWYRQAPGKERELVAAISYRGGSTNYADSVKGRFTISRDNAKNTVYLQMNSLKPEDTAVYYCATDDYYPQPFYYEYDYWGQGSQVTVSS,low polyreactivity
9,QVQLVESGGGLVQAGGSLRLSCAASGSTFPGNAMGWYRQAPGKERELVASISGGGDSTYYADSVKGRFTISRDNAKNTVYLQMNSLKPEDTAVYYCAADYRQEPGYTGYYYWGQGTQLTVSS,low polyreactivity
10,QVQLVESGGGLVQAGGSLRLSCAASGSTFPGNSMGWYRQAPGKEMELVAAIDTSGGSTYYADSVKWRFTISRDNAKNTVYLQINSLKPEDTAVYYCAADYLIEMDYWGQGTQVTVSS,low polyreactivity
11,QVQLVESGGGLVQAGGSLRLSCAASGSTFPGYAMGWYRQAPGKERELVAAINWRGDSTYYADSVKGRFTISRDNAKNTVYLQMNSLKPEDTAVYYCAAKYNHVTDEYDYWGQGTQVTVSS,high polyreactivity
12,QVQLVESGGGLVQAGGSLRLSCAASGSTFPGYAMGWYRQAPGKERELVATISSGGSTNYADSVKGRFTISRDNAKNTVYLQMNSLKPEDTAVYYCAKLRSAKFRYGYWGQGTQVTVSS,low polyreactivity
13,QVQLVESGGGLVQAGGSLRLSCAASGSTFPGYDMGWYRQAPGKERELVAAISWRDGRTFYADSVKGRFTISRDNAKNTVYLQMNSLKPEDSAVYYCAAAQRTAYLTYSYKYNYWGQCTQVTVSS,high polyreactivity
14,QVQLVESGGGLVQAGGSLRLSCAASGSTFPIYAMGWYRQAPGKERELVASIRSGGSTYYADSVKGRFTMSRDNAKNTVYLQMNSLKPEDTAVYYCARRDYGVLNKGLGQEGDYWGQGTQVTVSS,low polyreactivity
15,QVQLVESGGGLVQAGGSLRLSCAASGSTFPKYAMGWYRQAPGKERELVASISVTTGSTYYADSVKGRFTISRDNAKNTVYLQMNSVKPEDTAVYYCAARRGWGDDYWGQGTQVTVSS,high polyreactivity
16,QVQLVESGGGLVQAGGSLRLSCAASGSTFPKYAMGWYRQAPGKERELVATISSGTRTYYADSVKGRFTISRDNAKNTVYLQMNSLKPEDTAVYYCAARYQPRKGAHYGYWGQGTQVTVSS,high polyreactivity
17,QVQLVESGGGLVQAGGSLRLSCAASGSTFPLNVMGWYRQAPGKERELVAAISSAGSTNYADSVKGRFTISRDNAKNTVYLQMNSLKPEDTAVYYCNADVRSTWYWLQYTPIYDYWGQGTQVTVSS,low polyreactivity
18,QVQLVESGGGLVQAGGSLRLSCAASGSTFPLYAMGWYRQAPGKERELVAAISSSGGSTYYADSVKGRFTISRDNAKNTVYLQMNNLKPEDTAVYYCAAAPTSYSGYGYWGQGTQVTVSS,low polyreactivity
19,QVQLVESGGGLVQAGGSLRLSCAASGSTFPNYPMGWNRQSPGKERELVAAITRSGRSTYYADSVKGRFTISRDNAKNTVYLQMNSLKPEDTGVYYCNAQHLARMDYWGQGTQVTVSS,high polyreactivity
20,QVQLVESGGGLVQAGGSLRLSCAASGSTFPPNAMGWYRQSPGKERELVAVISYSDGSTYYADSVKGRFTISRDNAKNTVYLQMNSLKPEDTAVYYCAAYCGYGGVSMYYWGQGTQVTVSS,low polyreactivity
21,QVQLVESGGGLVQAGGSLRLSCAASGSTFPQNAMGWYRQAPGKERELVAAISRSGGRTYYADSVKGRFTISRDNAKNTVYLQMNILKPEDTAVYYCNAGFYQKYDYWGQGTQVTVSS,high polyreactivity

row,Sequence,polyreactivity (PSR sort gate)
1,QVQLVESGGGLVQAGGSLRLSCAASGSTFPQYAMGRYRQAPGKERELVAAISRSGGSTYYADSVKGRFTISRDNAKNTVYLQMNSLKPEDTAVYYCNVKSGFWFYPTMDYWGQGTQVTVSS,high polyreactivity
2,QVQLVESGGGLVQAGGSLRLSCAASGSTFPRNAMGWYRQAAGKERELVAAISGRGVRTYYADSVKGRFTISRDNAKNTVYLQMNSLKPEDTAVHYCAAERQPYRTSSYNYWGQGTQVTVSS,high polyreactivity
3,QVQLVESGGGLVQAGGSLRLSCAASGSTFPRNAMGWYRQAPGKDRELVAAISGSGGTTYYADSVKGRFTISRDNAKNTVYLQMNSLKPEDTAVYYCAARTSWAYPGGNYWGHGTQVTVSS,low polyreactivity
4,QVQLVESGGGLVQAGGSLRLSCAASGSTFPRNAMGWYRQAPGKERELVAAISGRGVRTYYADSVKGRFTISRDNAKNTVHLQMNSLKPEDTAVYYCAASRGKGVGLAYDYWGQGTQVTVSS,high polyreactivity
5,QVQLVESGGGLVQAGGSLRLSCAASGSTFPRNAMGWYRQAPGKERELVAAISRSGGSTYYADSVKGRFTISRDNAKNTVYLQINSLKPEDTAVYYCAASYYGLPRYRYEYWGQGTQVTVSS,high polyreactivity
6,QVQLVESGGGLVQAGGSLRLSCAASGSTFPRNAMGWYRQAPGKERELVAAISYSGGRTYYADSVKGRLRISRDNAKNTVYLQMNSLKPDDTAVYYCAASPGVGDSRYYYWGQGTQVTVSS,high polyreactivity
7,QVQLVESGGGLVQAGGSLRLSCAASGSTFPRNAMGWYRQAPGKERELVAGISRGSSTNYADSVKGRFTISRDNAKNTVYLQMNSLKPEDTAVYYCAAALSVTARLDYWGQGTQVTVSS,low polyreactivity
8,QVQLVESGGGLVQAGGSLRLSCAASGSTFPRYAMGWYRQAPGKARELVAAINSSGSSTYYADSVKGRFTISRDNAKNTVYLQMNSLKPEDTAVYYCAAKARYRDYYYWGQGTQVTVSS,high polyreactivity
9,QVQLVESGGGLVQAGGSLRLSCAASGSTFPRYAMGWYRQAPGKERELVAAISRSGTSTYYADSVKGRFTISRDNAKNTVYLQMNSLKPEDTAVYYCAAEYHPRVLYPNWYDYWGQGTQVTVSS,low polyreactivity
10,QVQLVESGGGLVQAGGSLRLSCAASGSTFPRYAMGWYRQAPGKERELVAAISRSGTTTYYADSVKGRFTISRDNAKNTVYLQMNSLKPEDTAVYYCAKRHYARYDYWGQGTQVTVSS,high polyreactivity
11,QVQLVESGGGLVQAGGSLRLSCAASGSTFPRYAMGWYRQAPGKERELVAAITYSGGRTYYADSVKGRFTISRDNAKNTVYLQMNSLKPEDTAVYYCAARYGPYRFNPMGYWGQGTQVTVSS,high polyreactivity
12,QVQLVESGGGLVQAGGSLRLSCAASGSTFPRYAMGWYRQAPGKERELVASITSDGGSTYYADSVKGRFTISRDNAKNTVYLQMNSLKPEDTAVYYCNKVPYRGYRRYGYWGQGTQVTVSS,high polyreactivity
13,QVQLVESGGGLVQAGGSLRLSCAASGSTFPSNAMGWYRQAPGKERELVAALSRGGTTNYADSVKGRFTISRDNAKNTVYLQMNCLKPEDTAVYYCAKVYKLYWYKAYRRDYWGQGTQVTVSS,high polyreactivity
14,QVQLVESGGGLVQAGGSLRLSCAASGSTFPSYAMGWYRQAHGKERELVAAINSGGGTNYADSVKGRFTISRDNAKNTVYLQMHSLKPEDTAVYYCDKSRYDYTKTEGGYWGQATQVTVSS,low polyreactivity
15,QVQLVESGGGLVQAGGSLRLSCAASGSTFPSYAMGWYRQAPGKERELVASITSSGGSTYYADSVKGRFTISRDNAKNTVYLQMNSLKPEDTAVYYCNARRYYYSWGREGGYWGQGTQVTVSS,low polyreactivity
16,QVQLVESGGGLVQAGGSLRLSCAASGSTFPTYAMGRDRTAPGKEREMVAAIDWSDGSITYYADSVKGRFTISRDNAKNTVYLQMNSLKPEDTAVYYCAKDNSQYGWGYDYWGQGTQVTVSS,low polyreactivity
17,QVQLVESGGGLVQAGGSLRLSCAASGSTFPTYSMGWYRQAPGKERELVAAITSGSGTNTYYADSVKGRFTISRDNAKNTVYLQMNSLKPEDTAVYYCAKSFRKKYGWGQGTQVTVSS,high polyreactivity
18,QVQLVESGGGLVQAGGSLRLSCAASGSTFPVNAMGWYRQAPGKERELVAAISSRGSSTYYADSVKGRFTISRDNAKNTVYLQMNSLKPEDTAVYYCAAPQRYPRFYYWGQGTQVTVSS,high polyreactivity
19,QVQLVESGGGLVQAGGSLRLSCAASGSTFPVNAMGWYRQAPGKERELVAAITYRDGDTYYADSVKGRFTISRDNAKNTVYLEMHSLKPEDTAVYYCNADVGRHGKNRHMDYWGQGTQVTVSS,low polyreactivity
20,QVQLVESGGGLVQAGGSLRLSCAASGSTFPVNAMGWYRQAPGKERELVARIRGSGGSTYYADSVKGRFTISRDNAKNTVYLQMKSLKPEDTAVYYCAARYIGYSSYKYDYWGQGTQVTVSS,high polyreactivity
